According to publication PMC10702470, “Activation of Csm6 ribonuclease by cyclic nucleotide binding: in an emergency, twist to open” (Nucleic Acids Research, 2023):
Residue numbers refer to the chain shown, from its start. Names and notes keep the numbering of the source.

How the values were obtained:
[1] = target: T1, StCsm6’ (Csm6’) (Streptococcus thermophilus, UniProt A0A0A7HFE6); assay: fluorogenic RNase activation assay (RNaseAlert FAM); type: biochemical; conditions: activator, CARF domain; 1 µM dimer, 125 nM reporter RNA, MES pH 6.0, 30 mM NaCl, 20% glycerol, 45 °C, 30 min
T1 construct: full length, 386 residues, CARF 1-173, 6H 174-239, HEPN 240-386; E. coli C43(DE3), pEV5HisTEV, 8-His tag cut by TEV; symmetrical homodimer
T1 sequence (A0A0A7HFE6 1-386): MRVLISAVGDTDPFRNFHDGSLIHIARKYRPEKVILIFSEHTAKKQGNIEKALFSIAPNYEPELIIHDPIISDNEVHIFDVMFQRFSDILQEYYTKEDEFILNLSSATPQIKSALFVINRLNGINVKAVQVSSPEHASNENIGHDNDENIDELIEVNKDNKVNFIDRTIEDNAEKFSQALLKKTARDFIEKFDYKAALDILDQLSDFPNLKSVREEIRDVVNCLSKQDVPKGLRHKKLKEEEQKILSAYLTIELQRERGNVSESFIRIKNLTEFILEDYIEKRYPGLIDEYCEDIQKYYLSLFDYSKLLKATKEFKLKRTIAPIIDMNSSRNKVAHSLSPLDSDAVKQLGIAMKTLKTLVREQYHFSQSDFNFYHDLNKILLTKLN

[2] = target: T1, StCsm6’ (Csm6’); assay: X-ray crystallography, […] Å; type: binding; conditions: CARF domain site at dimer; occupancy 0.50, mixed with cleaved product
[3] = target: the molecule itself; assay: crystal structure; StCsm6’ co-crystallised with cA6 (1:1.5 molar ratio), 1.96 Å; homodimer
[4] = target: the molecule itself; assay: pulse dipolar EPR spectroscopy (PELDOR/DEER); spin-labelled protein at 50 μM in deuterated buffer with 50% glycerol, frozen solution, 50 K, Q-band, with and without 25 μM cA6; distances between spin labels in the two monomers

## Nc1ncnc2c1ncn2[C@@H]1O[C@@H]2COP(=O)(O)O[C@H]3[C@@H](O)[C@H](n4cnc5c(N)ncnc54)O[C@@H]3COP(=O)(O)O[C@H]3[C@@H](O)[C@H](n4cnc5c(N)ncnc54)O[C@@H]3COP(=O)(O)O[C@H]3[C@@H](O)[C@H](n4cnc5c(N)ncnc54)O[C@@H]3COP(=O)(O)O[C@H]3[C@@H](O)[C@H](n4cnc5c(N)ncnc54)O[C@@H]3COP(=O)(O)O[C@H]3[C@@H](O)[C@H](n4cnc5c(N)ncnc54)O[C@@H]3COP(=O)(O)O[C@H]2[C@H]1O [cA6, cyclic hexa-adenylate]
[1]
  concentration for full activation: ~ 100 nM
[2]
  X-ray crystallography, 1.96 Å: electron density consistent with a molecule of cA6 bound to the StCsm6’ dimer

B1: Streptococcus thermophilus Csm6’ (enzyme, UniProt A0A0A7HFE6 1-386, looked up)
chain: T1 sequence (A0A0A7HFE6 1-386)
notes: Csm6’ ribonuclease of the type III-A CRISPR system of Streptococcus thermophilus; 386 residues in the monomer (CARF 1-173, 6H 174-239, HEPN 240-386); Cloned in pEV5HisTEV between NcoI and BamHI; Crystallised with cA6 (8PE3) and without (8PCW); also called StCsm6’; WT StCsm6’; source: E. coli C43 (DE3), purified (HisTrap, TEV cleavage, second IMAC, SEC)
[3]
  stoichiometry N: 2

B2: StCsm6’ variant C223A:C292A:N209C:D88C, MTSL spin-labelled (enzyme, Streptococcus thermophilus, UniProt A0A0A7HFE6 1-386, looked up)
chain: T1 sequence (A0A0A7HFE6 1-386) with D88C, N209C, C223A, C292A
modifications: MTSL spin-labelled cysteine side chain R1 at 88 and 209
notes: Csm6’ ribonuclease of Streptococcus thermophilus, 386 residues in the monomer, with four substitutions; parent as m1; Variants were expressed and purified as described for the WT protein; also called D88C/N209C; D88R1/N209R1; source: E. coli C43 (DE3), purified as the WT protein, then spin-labelled with MTSL
[4]
  binding result: binds

B3: StCsm6’ variant C223A:C292A:N209C:R85C, MTSL spin-labelled (enzyme, Streptococcus thermophilus, UniProt A0A0A7HFE6 1-386, looked up)
chain: T1 sequence (A0A0A7HFE6 1-386) with R85C, N209C, C223A, C292A
modifications: MTSL spin-labelled cysteine side chain R1 at 85 and 209
notes: Csm6’ ribonuclease of Streptococcus thermophilus, 386 residues in the monomer, with four substitutions; parent as m1; Variants were expressed and purified as described for the WT protein; also called R85C/N209C; R85R1/N209R1; source: E. coli C43 (DE3), purified as the WT protein, then spin-labelled with MTSL
[4]
  binding result: binds
